The record followed here is the supplement of paper PMC9112550, “Optimization of the antimicrobial peptide Bac7 by deep mutational scanning” (BMC Biology, 2022).

This series has as its system Escherichia coli TOP10. As to the kind of experiment: shrunken log2 fold change of peptide-encoding DNA abundance (4.5 h post-induction vs induction); higher = less antimicrobial activity (less host growth inhibition). Conditions: time post-induction: 4.5 h; library: site-saturation at positions 5, 18, 19, 20.
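Also: peptides expressed intracellularly from a pBAD plasmid library in pooled LB shake-flask culture, induced with 0.3% L-arabinose, DNA abundance read by NGS, three biological replicates, DESeq2 with apeglm shrinkage.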

RRIRMRPPRLPRPRPRPMCGPRP: the “shrunken log2 fold change” value came to 0.00224. Next, RRIRMRPPRLPRPRPRPSPKPRP: 0.593; RRIRPRPPRLPRPRPRPADWPRP: 0.434; RRIRNRPPRLPRPRPRPYVKPRP: -0.626.

As for RRIRPRPPRLPRPRPRPMIHPRP, the “shrunken log2 fold change” value was -0.696. Turning to RRIRMRPPRLPRPRPRPCICPRP, the “shrunken log2 fold change” value is -0.0505. Next, RRIRRRPPRLPRPRPRPYVCPRP: -0.374; RRIRWRPPRLPRPRPRPSMSPRP: 0.0258. With RRIRDRPPRLPRPRPRPDVSPRP the figure was -0.00965; with RRIRIRPPRLPRPRPRPMMNPRP, -0.442. Next, RRIRERPPRLPRPRPRPPERPRP: 0.366; RRIRERPPRLPRPRPRPQIEPRP: -0.208. Consider RRIRSRPPRLPRPRPRPMIEPRP, for which the “shrunken log2 fold change” value is -0.0828. With RRIRCRPPRLPRPRPRPLKRPRP the figure was -0.052; with RRIRCRPPRLPRPRPRPLLMPRP, -0.195; with RRIRWRPPRLPRPRPRPMDGPRP, 0.309. Take RRIRKRPPRLPRPRPRPIQYPRP: the “shrunken log2 fold change” value was -0.193. Consider RRIRVRPPRLPRPRPRPLCRPRP, for which the “shrunken log2 fold change” value was -0.149. Consider RRIRNRPPRLPRPRPRPRNSPRP, for which the “shrunken log2 fold change” value was -0.0392. Next, RRIRVRPPRLPRPRPRPHCYPRP: -0.234.

Turning to RRIRTRPPRLPRPRPRPPIIPRP, the “shrunken log2 fold change” value worked out at 0.0882. For the sequence RRIRVRPPRLPRPRPRPGTQPRP, the “shrunken log2 fold change” value was -0.183. Next, RRIRHRPPRLPRPRPRPFHPPRP: -0.274. Regarding RRIRVRPPRLPRPRPRPDLLPRP, the “shrunken log2 fold change” value is -0.224. Next, RRIRCRPPRLPRPRPRPSTIPRP: 0.255; RRIRVRPPRLPRPRPRPPGGPRP: 0.598; RRIRMRPPRLPRPRPRPKDAPRP: 2.02. Next, RRIRRRPPRLPRPRPRPEVAPRP: 0.345. With RRIRHRPPRLPRPRPRPILIPRP the figure was -0.0862; with RRIRCRPPRLPRPRPRPVWVPRP, 0.195.

RRIRGRPPRLPRPRPRPKNKPRP: the “shrunken log2 fold change” value came to 0.375. Regarding RRIRIRPPRLPRPRPRPFFHPRP, the “shrunken log2 fold change” value is -0.575.

On to RRIRARPPRLPRPRPRPALFPRP, for which the “shrunken log2 fold change” value was 0.61. Next, RRIRYRPPRLPRPRPRPNDWPRP: -0.116.

With RRIRQRPPRLPRPRPRPYNIPRP, the “shrunken log2 fold change” value is -0.395. With RRIRTRPPRLPRPRPRPKRCPRP the figure was 0.0203. RRIRHRPPRLPRPRPRPHMWPRP: the “shrunken log2 fold change” value came to 0.104. Next, RRIRPRPPRLPRPRPRPDKIPRP: -0.184; RRIRDRPPRLPRPRPRPSRIPRP: -0.307; RRIRFRPPRLPRPRPRPNIFPRP: -0.229. Regarding RRIRTRPPRLPRPRPRPTGHPRP, the “shrunken log2 fold change” value amounted to 0.131.

Turning to RRIRKRPPRLPRPRPRPVCQPRP, the “shrunken log2 fold change” value came to 0.436. Next, RRIRHRPPRLPRPRPRPLRMPRP: -0.0592; RRIRYRPPRLPRPRPRPTVEPRP: 0.0629. Next, RRIRPRPPRLPRPRPRPQEPPRP: 0.265; RRIRWRPPRLPRPRPRPANLPRP: -0.285; RRIRPRPPRLPRPRPRPIRIPRP: -0.149.

Take RRIRFRPPRLPRPRPRPRKYPRP: the “shrunken log2 fold change” value is -0.177. With RRIRARPPRLPRPRPRPASNPRP the figure was 0.5.

For RRIRWRPPRLPRPRPRPPAPPRP, the “shrunken log2 fold change” value is 1.03. Next, RRIRMRPPRLPRPRPRPGLLPRP: 0.251. Regarding RRIRTRPPRLPRPRPRPTFSPRP, the “shrunken log2 fold change” value is -0.169.

In the case of RRIRNRPPRLPRPRPRPRRCPRP, the “shrunken log2 fold change” value worked out at 0.291. Next, RRIRIRPPRLPRPRPRPHSTPRP: -0.428.

As to RRIRARPPRLPRPRPRPQSMPRP, the “shrunken log2 fold change” value is -0.0226. Next, RRIRCRPPRLPRPRPRPFSLPRP: -0.239; RRIRPRPPRLPRPRPRPQLPPRP: 0.0534; RRIRHRPPRLPRPRPRPDYYPRP: -0.622. With RRIRRRPPRLPRPRPRPSLTPRP the figure was -0.0192; with RRIRWRPPRLPRPRPRPANYPRP, -0.0848; with RRIRIRPPRLPRPRPRPMRMPRP, 0.0697. In the case of RRIRRRPPRLPRPRPRPFKSPRP, the “shrunken log2 fold change” value was -0.336. RRIRCRPPRLPRPRPRPLEEPRP: the “shrunken log2 fold change” value amounted to 0.408. With RRIRDRPPRLPRPRPRPSMRPRP, the “shrunken log2 fold change” value was determined as 0.334.

RRIRYRPPRLPRPRPRPRAVPRP: the “shrunken log2 fold change” value was 0.0585. As for RRIRGRPPRLPRPRPRPCTIPRP, the “shrunken log2 fold change” value came out at 0.166. Next, RRIRMRPPRLPRPRPRPAQYPRP: 0.377; RRIRKRPPRLPRPRPRPAVEPRP: 0.019. RRIRMRPPRLPRPRPRPQYEPRP: the “shrunken log2 fold change” value was -0.148. With RRIRWRPPRLPRPRPRPGIDPRP the figure was 0.117; with RRIRWRPPRLPRPRPRPQIPPRP, -0.493; with RRIRFRPPRLPRPRPRPEQRPRP, -0.0295. In the case of RRIRIRPPRLPRPRPRPMTAPRP, the “shrunken log2 fold change” value is -0.2. With RRIRKRPPRLPRPRPRPQKYPRP, the “shrunken log2 fold change” value is -0.184.

Turning to RRIRLRPPRLPRPRPRPSSRPRP, the “shrunken log2 fold change” value was -0.425.

Turning to RRIRMRPPRLPRPRPRPDKHPRP, the “shrunken log2 fold change” value was 0.253. With RRIRHRPPRLPRPRPRPMMCPRP the figure was -0.0874. With RRIRTRPPRLPRPRPRPFHCPRP, the “shrunken log2 fold change” value was -0.179. RRIRARPPRLPRPRPRPCYWPRP: the “shrunken log2 fold change” value is -0.000727.

As for RRIRNRPPRLPRPRPRPGRRPRP, the “shrunken log2 fold change” value came out at 0.79.

Take RRIRVRPPRLPRPRPRPIKAPRP: the “shrunken log2 fold change” value is 0.0466. With RRIRWRPPRLPRPRPRPNNTPRP the figure was -0.587. Next, RRIRFRPPRLPRPRPRPDAHPRP: -0.0702. On to RRIRQRPPRLPRPRPRPNTHPRP, for which the “shrunken log2 fold change” value was -0.203.

Consider RRIRRRPPRLPRPRPRPMRGPRP, for which the “shrunken log2 fold change” value was determined as 1.38.

As to RRIRDRPPRLPRPRPRPFQCPRP, the “shrunken log2 fold change” value amounted to 0.00675. Next, RRIRTRPPRLPRPRPRPEMAPRP: 0.484; RRIRTRPPRLPRPRPRPPCRPRP: 0.121. RRIRSRPPRLPRPRPRPFNWPRP: the “shrunken log2 fold change” value turned out to be 0.0339. Next, RRIRFRPPRLPRPRPRPSYNPRP: -1.04; RRIRDRPPRLPRPRPRPDLHPRP: -0.0715; RRIRERPPRLPRPRPRPPHKPRP: 0.0221.

For RRIRLRPPRLPRPRPRPCLNPRP, the “shrunken log2 fold change” value was -0.0428.

Take RRIRARPPRLPRPRPRPIKYPRP: the “shrunken log2 fold change” value is -0.38. As to RRIRARPPRLPRPRPRPVMRPRP, the “shrunken log2 fold change” value was determined as 0.292. Next, RRIRWRPPRLPRPRPRPTATPRP: 0.528; RRIRLRPPRLPRPRPRPVNNPRP: -0.269. In the case of RRIRTRPPRLPRPRPRPATHPRP, the “shrunken log2 fold change” value was -0.152. RRIRVRPPRLPRPRPRPNMCPRP: the “shrunken log2 fold change” value was -0.576. On to RRIRFRPPRLPRPRPRPGDQPRP, for which the “shrunken log2 fold change” value amounted to 0.0789.

For RRIRGRPPRLPRPRPRPIFHPRP, the “shrunken log2 fold change” value was determined as 0.249. Next, RRIRFRPPRLPRPRPRPHTKPRP: -0.0159; RRIRARPPRLPRPRPRPCYDPRP: -0.56.

For RRIRERPPRLPRPRPRPRAPPRP, the “shrunken log2 fold change” value amounted to 0.524. Next, RRIRCRPPRLPRPRPRPFYCPRP: -0.645.

For RRIRTRPPRLPRPRPRPCCPPRP, the “shrunken log2 fold change” value was -0.305.

In the case of RRIRVRPPRLPRPRPRPAQFPRP, the “shrunken log2 fold change” value was found to be 0.341. Consider RRIRLRPPRLPRPRPRPQRRPRP, for which the “shrunken log2 fold change” value turned out to be 0.0742.

RRIRQRPPRLPRPRPRPKADPRP: the “shrunken log2 fold change” value was 0.143. Next, RRIRCRPPRLPRPRPRPFCDPRP: -0.501; RRIRERPPRLPRPRPRPWICPRP: -0.378.

Consider RRIRRRPPRLPRPRPRPRFAPRP, for which the “shrunken log2 fold change” value turned out to be 0.616.

Turning to RRIRNRPPRLPRPRPRPPNEPRP, the “shrunken log2 fold change” value came out at 0.217. Next, RRIRMRPPRLPRPRPRPVHKPRP: -0.0081; RRIRTRPPRLPRPRPRPNNYPRP: -0.754. Next, RRIRDRPPRLPRPRPRPYMQPRP: -0.0171; RRIRDRPPRLPRPRPRPRQFPRP: 0.0037; RRIRMRPPRLPRPRPRPSHVPRP: -0.0609. With RRIRLRPPRLPRPRPRPPIMPRP the figure was -0.239.

For the sequence RRIRIRPPRLPRPRPRPLPCPRP, the “shrunken log2 fold change” value is -0.661. Next, RRIRCRPPRLPRPRPRPCKNPRP: -0.194; RRIRARPPRLPRPRPRPMRQPRP: 0.829. With RRIRKRPPRLPRPRPRPYVGPRP the figure was -0.0717; with RRIRCRPPRLPRPRPRPFPKPRP, 0.131. With RRIRIRPPRLPRPRPRPSEVPRP the figure was 0.0174.
